Data from paper PMC4038516, “Crystal Structure of Penicillin-Binding Protein 3 (PBP3) from Escherichia coli” (PLoS ONE, 2014).

What was measured:
[1] = biological target: the molecule itself; experiment: dynamic light scattering + other: static light scattering; PBP3_(88–165), batch mode, 20°C, buffer and concentration as for crystallogenesis (7.5 mg/ml, 0.15 M NaCl, 0.1 M Tris pH 8, 1 mM EDTA)
[2] = biological target: the molecule itself; experiment: dynamic light scattering + other: static light scattering; PBP3_(57–577), batch mode, 20°C, buffer and concentration as for crystallogenesis (18 mg/ml, 0.5 M NaCl, 20 mM Tris pH 8)

B1: PBP3_(88–165), Val88-Ser165 subdomain of Escherichia coli PBP3, strep-tag removed (domain or fragment, UniProt P0AD68 88-165, looked up)
chain: VKAIWADPKEVHDAGGISVGDRWKALANALNIPLDQLSARINANPKGRFIYLARQVNPDMADYIKKLKLPGIHLREES
notes: The tag is said to be removed before crystallization; Residues of the vector may remain at the N-terminus after the tag was removed; A selenomethionine form was used for phasing only; also called PBP3 Val88-Ser165 subdomain; source: E. coli C41(DE3) with pDML2042 (pET-52b(+)), purified (Strep-Tactin column), strep-tag removed; not shown: Strep-tag, N-terminal, cleaved
[1]
  stoichiometry N: 2

B2: PBP3_(57–577), soluble periplasmic form of Escherichia coli penicillin-binding protein 3 (domain or fragment, UniProt P0AD68 57-577, looked up)
chain: GDMRSLRVQQVSTSRGMITDRSGRPLAVSVPVKAIWADPKEVHDAGGISVGDRWKALANALNIPLDQLSARINANPKGRFIYLARQVNPDMADYIKKLKLPGIHLREESRRYYPSGEVTAHLIGFTNVDSQGIEGVEKSFDKWLTGQPGERIVRKDRYGRVIEDISSTDSQAAHNLALSIDERLQALVYRELNNAVAFNKAESGSAVLVDVNTGEVLAMANSPSYNPNNLSGTPKEAMRNRTITDVFEPGSTVKPMVVMTALQRGVVRENSVLNTIPYRINGHEIKDVARYSELTLTGVLQKSSNVGVSKLALAMPSSALVDTYSRFGLGKATNLGLVGERSGLYPQKQRWSDIERATFSFGYGLMVTPLQLARVYATIGSYGIYRPLSITKVDPPVPGERVFPESIVRTVVHMMESVALPGGGGVKAAIKGYRIAIKTGTAKKVGPDGRYINKYIAYTAGVAPASQPRFALVVVINDPQAGKYYGGAVSAPVFGAIMGGVLRTMNIEPDALTTGDKNEFV
notes: the ftsI gene encodes 588 residues and 11 C-terminal residues are removed by proteolytic cleavage; No tag is mentioned; also called FtsI; periplasmic domain of PBP3; source: E. coli W3110M (plasmid pDML232, with pDML237 for SecB), purified (S-Sepharose twice, Superdex 200)
[2]
  stoichiometry N: 2
